Data from publication PMC5592140 (Cellular signalling, 2017).
Where two headings read alike, the source gives them in different places.

B1: FLAG-CHIP (carboxy-terminus of Hsc70-interacting protein) (enzyme, human, UniProt Q9UNE7 1-303, looked up)
chain: MKGKEEKEGGARLGAGGGSPEKSPSAQELKEQGNRLFVGRKYPEAAACYGRAITRNPLVAVYYTNRALCYLKMQQHEQALADCRRALELDGQSVKAHFFLGQCQLEMESYDEAIANLQRAYSLAKEQRLNFGDDIPSALRIAKKKRWNSIEERRIHQESELHSYLSRLIAAERERELEECQRNHEGDEDDSHVRAQQACIEAKHDKYMADMDELFSQVDEKRKKRDIPDYLCGKISFELMREPCITPSGITYDRKDIEEHLQRVGHFDPVTRSPLTQEQLIPNLAMKEVIDAFISENGWVEDY
B2: His-MLK3 (Mixed Lineage Kinase 3) (enzyme, human, UniProt Q16584 1-847, looked up)
chain: MEPLKSLFLKSPLGSWNGSGSGGGGGGGGGRPEGSPKAAGYANPVWTALFDYEPSGQDELALRKGDRVEVLSRDAAISGDEGWWAGQVGGQVGIFPSNYVSRGGGPPPCEVASFQELRLEEVIGIGGFGKVYRGSWRGELVAVKAARQDPDEDISVTAESVRQEARLFAMLAHPNIIALKAVCLEEPNLCLVMEYAAGGPLSRALAGRRVPPHVLVNWAVQIARGMHYLHCEALVPVIHRDLKSNNILLLQPIESDDMEHKTLKITDFGLAREWHKTTQMSAAGTYAWMAPEVIKASTFSKGSDVWSFGVLLWELLTGEVPYRGIDCLAVAYGVAVNKLTLPIPSTCPEPFAQLMADCWAQDPHRRPDFASILQQLEALEAQVLREMPRDSFHSMQEGWKREIQGLFDELRAKEKELLSREEELTRAAREQRSQAEQLRRREHLLAQWELEVFERELTLLLQQVDRERPHVRRRRGTFKRSKLRARDGGERISMPLDFKHRITVQASPGLDRRRNVFEVGPGDSPTFPRFRAIQLEPAEPGQAWGRQSPRRLEDSSNGERRACWAWGPSSPKPGEAQNGRRRSRMDEATWYLDSDDSSPLGSPSTPPALNGNPPRPSLEPEEPKRPVPAERGSSSGTPKLIQRALLRGTALLASLGLGRDLQPPGGPGRERGESPTTPPTPTPAPCPTEPPPSPLICFSLKTPDSPPTPAPLLLDLGIPVGQRSAKSPRREEEPRGGTVSPPPGTSRSAPGTPGTPRSPPLGLISRPRPSPLRSRIDPWSFVSAGPRPSPLPSPQPAPRRAPWTLFPDSDPFWDSPPANPFQGGPQDCRAQTKDMGAQAPWVPEAGP

What was measured:
[1] = molecular target: T1, GST-MLK4β (Mixed Lineage Kinase 4β) (human, UniProt Q5TCX8-1 1-1036); experiment: pull-down
[2] = molecular target: T1, GST-MLK4β (Mixed Lineage Kinase 4β); experiment: pull-down; remark: listed apart in the source

T1 sequence (Q5TCX8 whole entry): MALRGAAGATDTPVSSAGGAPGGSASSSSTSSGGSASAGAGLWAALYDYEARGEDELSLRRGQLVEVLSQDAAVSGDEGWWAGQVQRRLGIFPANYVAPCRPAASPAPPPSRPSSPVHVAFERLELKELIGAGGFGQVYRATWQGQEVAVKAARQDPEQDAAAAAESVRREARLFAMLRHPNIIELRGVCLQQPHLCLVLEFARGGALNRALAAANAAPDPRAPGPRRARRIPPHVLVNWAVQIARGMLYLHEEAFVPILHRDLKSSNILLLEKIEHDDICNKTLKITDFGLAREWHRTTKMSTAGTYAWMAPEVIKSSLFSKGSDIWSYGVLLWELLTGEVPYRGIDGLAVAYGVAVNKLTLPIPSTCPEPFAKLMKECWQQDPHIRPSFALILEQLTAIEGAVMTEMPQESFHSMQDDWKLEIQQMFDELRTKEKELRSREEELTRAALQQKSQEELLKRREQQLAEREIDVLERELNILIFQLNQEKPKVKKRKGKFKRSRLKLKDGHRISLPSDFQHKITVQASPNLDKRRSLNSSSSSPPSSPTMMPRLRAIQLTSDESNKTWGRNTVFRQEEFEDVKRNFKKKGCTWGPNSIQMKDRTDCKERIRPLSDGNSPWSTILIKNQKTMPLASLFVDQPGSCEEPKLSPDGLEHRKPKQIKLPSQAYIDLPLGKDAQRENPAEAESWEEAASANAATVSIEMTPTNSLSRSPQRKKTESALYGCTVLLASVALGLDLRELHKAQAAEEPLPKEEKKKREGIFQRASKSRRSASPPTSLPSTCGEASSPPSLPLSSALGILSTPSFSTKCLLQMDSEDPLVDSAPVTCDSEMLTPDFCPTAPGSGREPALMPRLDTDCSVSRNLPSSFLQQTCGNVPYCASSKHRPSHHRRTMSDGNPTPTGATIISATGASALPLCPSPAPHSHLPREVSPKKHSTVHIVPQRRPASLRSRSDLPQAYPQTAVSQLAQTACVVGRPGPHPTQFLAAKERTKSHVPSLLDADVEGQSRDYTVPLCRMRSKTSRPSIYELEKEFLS

| Binder | binding result [1] | binding result [2] |
| --- | --- | --- |
| B1 | binds | – |
| B2 | – | binds |
